# Measurements taken from patent publication US20190031783A1 (AbbVie / Abbott, published 2019).
# Where “and” joins values, the source holds several entries; their conditions need not be identical. Equal entries are not always repeated.
# B1: h1A11.1-LL-Av (bispecific antibody, human IgG1)
# VH: EVQLVESGGGLVQPGGSLRLSCAASGFTFSNFPMAWVRQAPGKGLEWVATISSSDGTTYYRDSVKGRFTISRDNAKNSLYLQMNSLRAEDTAVYYCARGYYNSPFAYWGQGTLVTVSSASTKGPSVFPLAPEVQLVESGGGLVQPGGSLRLSCAASGYTFTNYGMNWVRQAPGKGLEWVGWINTYTGEPTYAADFKRRFTFSLDTSKSTAYLQMNSLRAEDTAVYYCAKYPHYYGSSHWYFDVWGQGTLVTVSS
# VL: DIQMTQSPSSLSASVGDRVTITCRASEDIYSNLAWYQQKPGKAPKLLIYDTNNLADGVPSRFSGSGSGTDFTLTISSLQPEDFATYYCQQYNNYPPTFGQGTKLEIKRTVAAPSVFIFPPDIQMTQSPSSLSASVGDRVTITCSASQDISNYLNWYQQKPGKAPKVLIYFTSSLHSGVPSRFSGSGSGTDFTLTISSLQPEDFATYYCQQYSTVPWTFGQGTKVEIKR
# notes: DVD-Ig; also called h1A11.1-LL-Av DVD
# B2: h1A11.1-LS-Av (bispecific antibody, human IgG1)
# VH: B1 VH
# VL: DIQMTQSPSSLSASVGDRVTITCRASEDIYSNLAWYQQKPGKAPKLLIYDTNNLADGVPSRFSGSGSGTDFTLTISSLQPEDFATYYCQQYNNYPPTFGQGTKLEIKRTVAAPDIQMTQSPSSLSASVGDRVTITCSASQDISNYLNWYQQKPGKAPKVLIYFTSSLHSGVPSRFSGSGSGTDFTLTISSLQPEDFATYYCQQYSTVPWTFGQGTKVEIKR
# notes: DVD-Ig; also called h1A11.1-LS-Av DVD
# B3: h1A11.1-SL-Av Fab (Fab)
# chain 1: EVQLVESGGGLVQPGGSLRLSCAASGFTFSNFPMAWVRQAPGKGLEWVATISSSDGTTYYRDSVKGRFTISRDNAKNSLYLQMNSLRAEDTAVYYCARGYYNSPFAYWGQGTLVTVSSASTKGPEVQLVESGGGLVQPGGSLRLSCAASGYTFTNYGMNWVRQAPGKGLEWVGWINTYTGEPTYAADFKRRFTFSLDTSKSTAYLQMNSLRAEDTAVYYCAKYPHYYGSSHWYFDVWGQGTLVTVSS
# chain 2: not shown
# B4: h1A11.1-SS-Av (bispecific antibody, human IgG1)
# VH: B3 chain 1
# VL: B2 VL
# notes: DVD-Ig; also called h1A11.1-SS-Av DVD
# B5: h1A11.1 humanized anti-DLL4 mAb (antibody, V domains shown)
# VH: EVQLVESGGGLVQPGGSLRLSCAASGFTFSNFPMAWVRQAPGKGLEWVATISSSDGTTYYRDSVKGRFTISRDNAKNSLYLQMNSLRAEDTAVYYCARGYYNSPFAYWGQGTLVTVSS
# VL: DIQMTQSPSSLSASVGDRVTITCRASEDIYSNLAWYQQKPGKAPKLLIYDTNNLADGVPSRFSGSGSGTDFTLTISSLQPEDFATYYCQQYNNYPPTFGQGTKLEIKR
# B6: humanized anti-DLL4 mAb (h1A11.1) (antibody, V domains shown)
# VH: B5 VH
# VL: B5 VL
# notes: Parental humanized anti-DLL4 mAb
# Tests used:
# [1] = target: T1, full-length human DLL4 on HEK293G cells (human, UniProt Q9NR61 27-685); assay: cell-based or functional assay
# [2] = target: T1, full-length human DLL4 on HEK293G cells; assay: flow cytometry (FACS) on HEK293G cells overexpressing full-length DLL4
# Procedure: Stable HEK293G cell lines overexpressing full-length DLL4 were harvested from tissue culture flasks, washed four times and resuspended in phosphate buffered saline (PBS) containing 1% bovine serum albumin and 1 mM CaCl₂ (FACS buffer). 1.5×10⁵ cells were incubated with DVD binding proteins at various concentrations in FACS buffer for 60 minutes on ice. […] Following an incubation on ice (4° C., 60 minutes), cells were washed three times and resuspended in FACS buffer. Fluorescence was measured using a Becton Dickinson FACSCalibur-HTS (Becton Dickinson, San Jose, Calif.). Data was analyzed using Graphpad Prism software and EC₅₀ values were reported as the concentration of antibody to achieve 50% of maximal antibodies binding to DLL4 expressing cells.
# [3] = target: T2, purified recombinant human DLL4 extracellular domain (ECD) (human, UniProt Q9NR61 27-529); assay: Notch competition ELISA: inhibition of biotin DLL4 ECD binding to coated human Notch-1
# T2 construct: extracellular domain; also called human DLL4529; huDLL4
# Procedure: Plates were then washed 3× with wash buffer (PBS, 0.05% Tween-20) and blocked with 200 μl/well blocking buffer (D-PBS, 1% BSA, 1 mM CaCl₂, 0.05% Tween-20) for 1 hour at 25° C. […] Assay plates were washed after blocking, and incubated with DLL4/antibody mixtures (100 μl/well, 1 hour at 25° C. with shaking). Plates were washed again and 100 μl/well of streptavidin conjugated with HRP (Fitzgerald #65R-S104PHRPx, diluted 1:5,000 in blocking buffer) was added for 1 hour at 25° C. with shaking. After a final wash, plates were developed using 100 μl/well substrate (TMB Sigma #T8665), and the reaction was stopped using 100 μl/well 1N HCl, and the absorbance was read at 450 nm. Data was analyzed using Graphpad Prism software and IC₅₀ values were reported as the concentration of antibody required to achieve 50% reduction of DLL4 binding to Notch1.
# [4] = target: T2, purified recombinant human DLL4 …; assay: SPR (Biacore), DVD captured via anti-human Fc, DLL4 ECD injected, 25 C
# Procedure: (§1) For DLL4 binding kinetic measurements the assay buffer was HBS-EPB: 10 mM Hepes, pH7.5, 150 mM NaCl, 3 mM EDTA, 0.005% Tween 20, 0.1 mg/ml BSA (Sigma A7906). For VEGF binding kinetic measurements the assay buffer was HBS-EP+(3N01B): 10 mM Hepes, pH7.5, 300 mM NaCl, 3 mM EDTA, 0.05% Tween 20, 0.1 mg/ml BSA (Sigma A7906). For example, approximately 9000 RU of goat anti-human Fc specific polyclonal antibody (Thermo Fisher Scientific Inc., Rockford, Ill.) diluted in 10 mM sodium acetate (pH 4.5) is directly immobilized across a CM5 research grade biosensor chip using a standard amine coupling kit according to manufacturer's instructions and procedures at 25 ug/ml. Unreacted moieties on the biosensor surface are blocked with ethanolamine. For kinetic analysis, rate equations derived from the 1:1 Langmuir binding model are fitted simultaneously to multiple antigen injections (using global fit analysis) with the use of Scrubber 2 (BioLogic Software), Biacore Biaevaluation 4.0.1 software or Biacore T100 Evaluation software. Purified antibodies are diluted in running buffer for capture across goat anti-human Fc reaction surfaces. Antibodies to be captured as a ligand (1 ug/ml) are injected over reaction matrices at a flow rate of 10 ul/min. During the assay, all measurements are referenced against the capture surface alone (i.e. with no captured antibody). […] The equilibrium dissociation constant KD (M) of the reaction between antibodies and the target antigen is then calculated from the kinetic rate constants by the following formula: KD=Koff/Kₒₙ. Binding is recorded as a function of time and kinetic rate constants are calculated.
# [5] = target: T3, human DLL4, full-length, expressed on HEK293G cells (human, UniProt Q9NR61 27-685); assay: cell-based or functional assay
# [6] = target: T3, human DLL4, full-length, expressed on …; assay: cell-based or functional assay; remark: listed apart in the source
# [7] = target: T2, purified recombinant human DLL4 …; assay: SPR (Biacore), antibody captured via anti-human Fc, DLL4 ECD injected, 25 C
# Procedure: as §1
binder,measurement,setting,value
B1,Notch Activation IC50,[1],4.56 nM
same,EC50,[2],5.04 nM
same,IC50,[3],0.79 nM
B2,Notch Activation IC50,[1],4.59 nM
same,Kd,[4],11 nM
same,EC50,[2],5 nM
same,IC50,[3],0.76 nM
B3,"IC50 (nM), DLL4 neutralization cellular assay, 0 nM VEGF",[5],> 40 nM
same,"IC50 (nM), DLL4 neutralization cellular assay, 150 nM BSG2 present",[5],> 40 nM
same,"IC50 (nM), DLL4 neutralization cellular assay, 150 nM VEGF present",[5],4.56 nM
B4,Notch Activation IC50,[1],7.47 nM
same,Kd,[4],12 nM
same,EC50,[2],3.75 nM
B5,"IC50 (nM), DLL4-Notch reporter assay, h1A11.1 + Av mixture, 0 nM VEGF",[6],8.64 nM and 9.17 nM
same,"IC50 (nM), DLL4-Notch reporter assay, h1A11.1 + Av mixture, 6 nM BSG2 (negative control protein) present",[6],9.55 nM
same,"IC50 (nM), DLL4-Notch reporter assay, h1A11.1 + Av mixture, 6 nM VEGF present",[6],9.97 nM
same,"IC50 (nM), DLL4-Notch reporter assay, h1A11.1 + Av mixture, 150 nM BSG2 (negative control protein) present",[6],10.9 nM
same,"IC50 (nM), DLL4-Notch reporter assay, h1A11.1 + Av mixture, 150 nM VEGF present",[6],10.3 nM
B6,Kd,[7],12 nM
same,koff,[7],0.00193 s⁻¹
same,kon,[7],160000 M⁻¹ s⁻¹
